The text below walks through data of paper doi:10.1101/2022.06.30.497818.

In general, Kd refers to the constant that tells how readily two partners part at equilibrium.

This test addresses GST-tagged CDK2 (human cyclin-dependent kinase 2, 1-298) (human) (UniProt P24941). Put plainly: SPR. On the technique in general: SPR reads the build-up and loss of mass on a sensor chip optically.

Regarding “Bovine cyclin A (171-432 with a C-terminal 6His tag) (from UniProt P30274 171-430) (domain or fragment)”, the equilibrium dissociation constant (Kd) was 2.8 nM.
